Series [1] deals with T1, SRSF1 (UniProt Q07955 1-248). Briefly: SPR imaging; SPRi (IBIS MX-96): 10 mM HEPES/KOH pH 7.9, 150 mM KCl, 10 mM MgCl2, 0.075% Tween-80; 6.25-400 nM protein over immobilized biotinylated RNA; 20 mg/ml BSA block. The note with it: protein: recombinant; label: 3' biotin.
In series [2] the target is T2, hnRNP A1 (UniProt P09651 1-372). Briefly: SPR imaging; 1:2 biphasic fit, primary Kd; SPRi (IBIS MX-96): 10 mM HEPES/KOH pH 7.9, 150 mM KCl, 10 mM MgCl2, 0.075% Tween-80; 6.25-400 nM protein over immobilized biotinylated RNA; 20 mg/ml BSA block. The note with it: protein: commercial; label: 3' biotin.
Series [3] concerns the target T1, SRSF1. Briefly: SPR imaging; Kd NA, Rmax 0, maximum 0; SPRi (IBIS MX-96): 10 mM HEPES/KOH pH 7.9, 150 mM KCl, 10 mM MgCl2, 0.075% Tween-80; 6.25-400 nM protein over immobilized biotinylated RNA; 20 mg/ml BSA block. The note with it: protein: recombinant; label: 3' biotin.
The target of series [4] is T2, hnRNP A1. Briefly: SPR imaging; 1:2 biphasic fit, primary Kd; low Rmax 58.75; SPRi (IBIS MX-96): 10 mM HEPES/KOH pH 7.9, 150 mM KCl, 10 mM MgCl2, 0.075% Tween-80; 6.25-400 nM protein over immobilized biotinylated RNA; 20 mg/ml BSA block. The settings on record: protein: commercial; label: 3' biotin.
Series [5] deals with T2, hnRNP A1. Kind of series: SPR imaging; 1:2 biphasic fit, primary Kd; fitted maximum higher than WT (60.5 vs 49.6); SPRi (IBIS MX-96): 10 mM HEPES/KOH pH 7.9, 150 mM KCl, 10 mM MgCl2, 0.075% Tween-80; 6.25-400 nM protein over immobilized biotinylated RNA; 20 mg/ml BSA block. The settings on record: protein: commercial; label: 3' biotin.
The target in series [6] is T2, hnRNP A1. Briefly: SPR imaging; 1:2 biphasic fit, primary Kd; fitted maximum higher than SMN1 (1260 vs 885); SPRi (IBIS MX-96): 10 mM HEPES/KOH pH 7.9, 150 mM KCl, 10 mM MgCl2, 0.075% Tween-80; 6.25-400 nM protein over immobilized biotinylated RNA; 20 mg/ml BSA block. The settings on record: protein: commercial; label: 3' biotin.
Another series addresses TDP-43 (UniProt Q13148 1-414). Briefly: SPR imaging; pronounced increase vs wt; SPRi (IBIS MX-96): 10 mM HEPES/KOH pH 7.9, 150 mM KCl, 10 mM MgCl2, 0.075% Tween-80; 6.25-400 nM protein over immobilized biotinylated RNA; 20 mg/ml BSA block. The note with it: protein: commercial; label: 3' biotin.
Series [7] deals with T2, hnRNP A1. Kind of series: SPR imaging; 1:2 biphasic fit, primary Kd; low Rmax 68.35; SPRi (IBIS MX-96): 10 mM HEPES/KOH pH 7.9, 150 mM KCl, 10 mM MgCl2, 0.075% Tween-80; 6.25-400 nM protein over immobilized biotinylated RNA; 20 mg/ml BSA block. The note with it: protein: commercial; label: 3' biotin.
Series [8] addresses T2, hnRNP A1. Kind of series: SPR imaging; 1:2 biphasic fit, primary Kd; text: increased binding vs WT (maximum 718 vs 131); SPRi (IBIS MX-96): 10 mM HEPES/KOH pH 7.9, 150 mM KCl, 10 mM MgCl2, 0.075% Tween-80; 6.25-400 nM protein over immobilized biotinylated RNA; 20 mg/ml BSA block. The note with it: protein: commercial; label: 3' biotin.

T1 sequence (Q07955 whole entry): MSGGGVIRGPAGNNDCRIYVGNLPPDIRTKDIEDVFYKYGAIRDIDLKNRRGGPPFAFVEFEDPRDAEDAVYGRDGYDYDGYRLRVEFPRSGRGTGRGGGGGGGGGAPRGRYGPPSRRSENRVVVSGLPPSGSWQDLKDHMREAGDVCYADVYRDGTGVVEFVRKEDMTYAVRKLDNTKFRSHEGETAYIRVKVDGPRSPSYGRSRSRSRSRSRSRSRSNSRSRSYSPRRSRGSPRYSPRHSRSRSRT
T2 sequence (P09651 whole entry): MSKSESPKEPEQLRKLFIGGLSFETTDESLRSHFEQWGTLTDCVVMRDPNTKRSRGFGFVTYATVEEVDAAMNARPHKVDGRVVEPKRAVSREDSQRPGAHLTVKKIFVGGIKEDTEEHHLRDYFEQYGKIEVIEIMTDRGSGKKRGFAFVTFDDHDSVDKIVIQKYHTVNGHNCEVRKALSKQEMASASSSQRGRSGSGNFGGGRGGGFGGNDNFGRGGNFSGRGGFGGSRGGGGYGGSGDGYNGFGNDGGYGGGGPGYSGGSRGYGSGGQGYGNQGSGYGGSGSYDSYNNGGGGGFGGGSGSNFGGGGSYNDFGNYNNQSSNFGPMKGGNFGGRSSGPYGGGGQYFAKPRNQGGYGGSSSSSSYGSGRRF
Chain of TDP-43 (Q13148 whole entry): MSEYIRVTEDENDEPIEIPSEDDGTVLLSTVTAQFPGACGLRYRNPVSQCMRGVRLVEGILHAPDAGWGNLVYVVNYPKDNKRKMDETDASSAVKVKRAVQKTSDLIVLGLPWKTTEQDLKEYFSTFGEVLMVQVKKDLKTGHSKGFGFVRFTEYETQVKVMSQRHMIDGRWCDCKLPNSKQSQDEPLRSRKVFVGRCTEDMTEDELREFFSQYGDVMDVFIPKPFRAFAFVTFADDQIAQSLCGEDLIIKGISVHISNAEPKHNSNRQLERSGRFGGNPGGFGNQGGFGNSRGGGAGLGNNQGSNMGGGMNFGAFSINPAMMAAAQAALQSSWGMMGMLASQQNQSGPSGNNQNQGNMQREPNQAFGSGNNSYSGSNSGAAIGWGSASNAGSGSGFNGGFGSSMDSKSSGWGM

B1: ATP7AEX20 WT (ssRNA)
RNA: GGGAGAUGGAAUCAA
On to B1, for which the Kd with SRSF1 [1] amounted to 913 nM; in the series with hnRNP A1 [2], 886 nM.

B2: MLH1EX17 WT (ssRNA)
RNA: CAUUCUUCGACUAGC
Regarding B2, the binding result with SRSF1 [3] is reported as “no binding”. The molecule further registered an equilibrium dissociation constant (Kd) with hnRNP A1 [4] of 32 nM.

B3: ATMEX44 MUT (ssRNA)
RNA: UGACCUCAAAACAGC
As to B3, the equilibrium dissociation constant (Kd) in the series with hnRNP A1 [5] is 211000 nM; with SRSF1 [1] it was 10500 nM.

B4: NF1EX30 MUT (ssRNA)
RNA: AUUUUUGUAAGAGUG
As to B4, the Kd in the series with SRSF1 [1] was 248000 nM; in the series with hnRNP A1 [2], 1080 nM.

B5: SMN2E7T (ssRNA)
RNA: AGGGUUUUAGACAAA
With B5, the Kd in the series with hnRNP A1 [6] came out at 1040 nM; with SRSF1 [1] it was 249000 nM.

B6: ATMEX44 WT (ssRNA)
RNA: UGACCUCGAAACAGC
For the molecule B6, the Kd with SRSF1 [1] was determined as 60900 nM; with hnRNP A1 [2], 3890 nM.

B7: SMN1E7C (ssRNA)
RNA: AGGGUUUCAGACAAA
As to B7, the figures for the Kd with SRSF1 [1] and in the series with hnRNP A1 [2] were 302 nM and 733 nM, respectively.

B8: ACADM exon 6 5'ss +7A>G 23 nt (ssRNA)
RNA: UGAUGUGUGUGAGUGUGUGUAAC
Regarding B8, the binding result in the series with TDP-43 is given as “binds”.

B9: MLH1EX17 MUT (ssRNA)
RNA: CAUUCUUUGACUAGC
Consider B9, for which the Kd in the series with hnRNP A1 [7] amounted to 118 nM. Further, the binding result with SRSF1 [3] was “no binding”.

B10: PTENEX6 WT (ssRNA)
RNA: UCCCAGUCAGAGGCG
In the case of B10, the results for the Kd with SRSF1 [1] and with hnRNP A1 [2] were 5800 nM and 1160 nM, respectively.

B11: NF1EX30 WT (ssRNA)
RNA: AUUUUUGGAAGAGUG
Regarding B11, the Kd in the series with SRSF1 [1] came to 168 nM; in the series with hnRNP A1 [2], 632 nM.

B12: PTENEX6 MUT (ssRNA)
RNA: UCCCAGUUAGAGGCG
Consider B12, for which the equilibrium dissociation constant (Kd) with SRSF1 [1] is 161000 nM; with hnRNP A1 [2] it was 1450 nM.

B13: ATP7AEX20 MUT (ssRNA)
RNA: GGGAGAUAGAAUCAA
For the molecule B13, the Kd with hnRNP A1 [8] turned out to be 989 nM; with SRSF1 [1], 5090 nM.

As usually defined, the Kd is a measure of binding affinity in units of concentration.
